T1: muCDH19(44-139)::huCDH19(142-249)::muCDH19(248-770), Flag-tagged, on 293T cells (human/mouse chimera)
T1 construct: also called Hu EC2; C137913
T1 chain: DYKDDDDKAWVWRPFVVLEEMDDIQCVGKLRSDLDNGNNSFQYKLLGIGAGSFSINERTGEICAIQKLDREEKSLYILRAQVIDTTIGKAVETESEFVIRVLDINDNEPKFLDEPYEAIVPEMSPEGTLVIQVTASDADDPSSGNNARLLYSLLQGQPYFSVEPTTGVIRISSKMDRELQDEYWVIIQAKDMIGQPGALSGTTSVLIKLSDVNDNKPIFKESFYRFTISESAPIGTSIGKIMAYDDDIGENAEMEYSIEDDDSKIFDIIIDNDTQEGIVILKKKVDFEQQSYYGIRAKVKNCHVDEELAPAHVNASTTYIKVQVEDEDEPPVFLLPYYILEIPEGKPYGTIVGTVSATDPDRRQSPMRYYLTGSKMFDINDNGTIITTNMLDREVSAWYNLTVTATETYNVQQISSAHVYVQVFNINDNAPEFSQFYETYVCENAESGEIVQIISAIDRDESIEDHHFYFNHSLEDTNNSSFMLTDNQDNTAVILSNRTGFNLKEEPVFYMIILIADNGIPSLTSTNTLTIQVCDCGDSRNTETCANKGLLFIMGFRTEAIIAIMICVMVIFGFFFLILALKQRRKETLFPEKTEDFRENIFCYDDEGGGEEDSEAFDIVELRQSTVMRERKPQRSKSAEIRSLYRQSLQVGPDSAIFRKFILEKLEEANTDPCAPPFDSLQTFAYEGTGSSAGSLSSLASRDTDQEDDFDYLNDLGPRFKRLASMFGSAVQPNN

T2: muCDH19(44-362)::huCDH19(365-772), Flag-tagged, on 293T cells (human/mouse chimera)
T2 construct: also called Hu EC4-5; C137917
T2 chain: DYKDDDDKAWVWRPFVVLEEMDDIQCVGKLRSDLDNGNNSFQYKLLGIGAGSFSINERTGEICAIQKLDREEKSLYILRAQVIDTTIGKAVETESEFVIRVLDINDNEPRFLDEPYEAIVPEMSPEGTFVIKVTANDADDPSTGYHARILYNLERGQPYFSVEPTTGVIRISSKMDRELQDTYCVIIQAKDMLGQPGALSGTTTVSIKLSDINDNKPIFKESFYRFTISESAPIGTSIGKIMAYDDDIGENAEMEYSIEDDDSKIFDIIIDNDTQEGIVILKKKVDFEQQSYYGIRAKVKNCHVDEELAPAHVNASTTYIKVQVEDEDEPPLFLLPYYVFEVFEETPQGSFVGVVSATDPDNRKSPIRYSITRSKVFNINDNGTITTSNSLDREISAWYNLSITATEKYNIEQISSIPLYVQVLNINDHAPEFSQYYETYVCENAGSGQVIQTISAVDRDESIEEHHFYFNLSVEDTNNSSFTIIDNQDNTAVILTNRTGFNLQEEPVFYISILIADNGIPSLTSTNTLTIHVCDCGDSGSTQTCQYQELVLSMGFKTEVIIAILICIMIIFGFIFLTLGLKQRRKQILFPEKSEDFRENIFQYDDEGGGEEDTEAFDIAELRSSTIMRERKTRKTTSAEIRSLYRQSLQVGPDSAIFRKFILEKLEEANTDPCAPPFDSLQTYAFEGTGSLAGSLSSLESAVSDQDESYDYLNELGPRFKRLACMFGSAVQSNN

T3: muCDH19(44-461)::huCDH19(464-772), Flag-tagged, on 293T cells (human/mouse chimera)
T3 construct: also called Hu EC5; C137915
T3 chain: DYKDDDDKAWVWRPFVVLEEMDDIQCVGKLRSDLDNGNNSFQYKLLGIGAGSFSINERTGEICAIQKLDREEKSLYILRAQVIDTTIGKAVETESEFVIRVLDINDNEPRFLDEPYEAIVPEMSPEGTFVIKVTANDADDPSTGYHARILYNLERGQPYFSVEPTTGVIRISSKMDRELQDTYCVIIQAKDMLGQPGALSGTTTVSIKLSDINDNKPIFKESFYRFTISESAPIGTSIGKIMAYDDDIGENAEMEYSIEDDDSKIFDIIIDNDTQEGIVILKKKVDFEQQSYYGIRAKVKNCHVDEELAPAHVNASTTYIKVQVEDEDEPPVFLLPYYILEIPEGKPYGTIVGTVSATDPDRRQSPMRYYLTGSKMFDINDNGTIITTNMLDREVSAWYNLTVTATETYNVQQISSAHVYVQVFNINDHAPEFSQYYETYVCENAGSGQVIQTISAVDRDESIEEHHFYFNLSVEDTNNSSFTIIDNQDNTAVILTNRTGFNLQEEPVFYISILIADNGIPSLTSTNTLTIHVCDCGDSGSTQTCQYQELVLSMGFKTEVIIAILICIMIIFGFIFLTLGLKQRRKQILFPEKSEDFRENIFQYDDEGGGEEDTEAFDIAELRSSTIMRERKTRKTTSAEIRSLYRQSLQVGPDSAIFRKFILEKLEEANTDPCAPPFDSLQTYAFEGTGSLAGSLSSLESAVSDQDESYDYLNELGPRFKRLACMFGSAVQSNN

B1: hu anti-<huCDH19> 26D1.1 VH::huIgG1z / 26D1.1 VL::huLLC-C2 (Ab ID 13882) (antibody, V domains shown)
VH: QVQLVQSGAEVKKPGASVKVSCKASRYTFTSYYMSWVRQAPGQGLEWMGIIHPSGGDTTYAQKFQGRVTMTGDTSTSTVYMELSSLRSEDTAVYYCARGGIKLWLHFDYWGQGTLVTVSS
VL: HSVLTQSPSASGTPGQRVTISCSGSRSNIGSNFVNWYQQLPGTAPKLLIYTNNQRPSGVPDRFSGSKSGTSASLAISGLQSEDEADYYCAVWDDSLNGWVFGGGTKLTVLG
B2: anti-CDH19 antibody 2G6 (Ab ID 13588) (antibody, human IgG1, lambda, V domains shown)
VH: QVQLVESGGGVVQPGRSLRLSCAASGFTFSSYGMHWVRQAPGKGLEWVAFIWYDGSNKYYADSVKDRFTISRDNSKNTLYLQMKSLRAEDTAVYYCARRAGIIGTIGYYYGMDVWGQGTTVTVSS
VL: SYELTQPPSVSVSPGQTASITCSGDRLGEKYTCWYQQRPGQSPLLVIYQDTKRPSGIPERFSGSNSGNTATLTISGTQAMDEADYYCQAWDSSTVVFGGGTKLTVLG
B3: hu anti-<huCDH19> 4A9 VH::huIgG1z / 4A9 VL::huLLC-C1 (Ab ID 13589) (antibody, V domains shown)
VH: QVQLQESGPGLVKPSETLSLTCTVSGGSISGYYWSWIRQPPGKGLEWFAYFSYSGSTNYNPSLKSRVTLSVDTSKNQFSLKLSSVTAADTAVYYCARNWAFHFDFWGQGTLVTVSS
VL: QSVLTQPPSVSGAPGQRVTISCTGSSSNIGTGYAVHWYQQFPGTAPKLLIYGNNNRPSGVPDRFSGSKSGTSASLAITGLQAEDEADYYCQSYDSRLSGWVFGGGTKLTVLG
notes: Recombinant fully human IgG1

Experiments:
Test in all cases: FACS, transfected 293T
[1] = molecular target: T4, rhCDH19(1-43)::FLAG::rhCDH19(44-65)::caCDH19(65-770), on 293T cells (rhesus macaque/dog chimera)
T4 construct: Entry holds leader (1-43), Flag tag and CDH19 part; leader left out; also called rh EC1a (dog backbone)
Procedure: The following binding assay was completed in presence of 2 mM CaCl2. […] Cells were then washed one time and the amount of cell associated Alexa647-labelled Ab was quantitated by flow cytometry. The experiments included mock transfected controls.

[2] = molecular target: T1, muCDH19(44-139)::huCDH19(142-249)::muCDH …
Source text: (§1) The experiment included assaying the anti-CDH19 antibodies against mouse Cadherin19 to determine suitability for binning on these human/mouse chimeras.

[3] = molecular target: T2, muCDH19(44-362)::huCDH19(365-772), …
Source text: as §1

[4] = molecular target: T3, muCDH19(44-461)::huCDH19(464-772), …
Source text: as §1

Row | Binder | binding result [1] | binding result [2] | binding result [3] | binding result [4]
1 | B1 | binds | – | – | –
2 | B2 | – | binds | binds | binds
3 | B3 | no binding (tested: 5 ug/ml) | – | – | –
